Measurements: patent US9546211B2 (SINGH MOLECULAR MEDICINE, LLC, priority 2014, dated 2017)
“And” between values parts separate entries of the source, which are not always exact repeats. Equal values may be shown once.

Key:
TNF-alpha = TNF-alpha (Homo sapiens, UniProt P01375); assay: Inhibition of TNF-alpha cytotoxicity against U937 cells; assay type: cell-based; settings: constant dose of TNF-alpha at EC50
MDA-MB-231 cells = assay: MTT proliferation assay, MDA-MB-231; assay type: cell-based, human; settings: for Mean Absorbance (570 nM) ± S.E., Overall Mean: 4 experiments;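 on all read-outs here: human cancer cells grown to 90% confluence before treatment, treated groups compared against a vehicle control group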
PANC-1 cells = assay: MTT proliferation assay, PANC-1; assay type: cell-based, human; settings: for Mean Absorbance (570 nM) ± S.E., Overall Mean: 3 experiments; for Mean Absorbance (570 nM) ± S.E.: single experiments
[1] = MDA-MB-231, day 3, 10.0 μg/ml, single experiments
[2] = MDA-MB-231, day 3, 100 μg/ml, single experiments
[3] = MDA-MB-231, day 3 post treatment, 0.5 μg/ml

Chain of TNF-alpha (P01375 77-233 limits assumed): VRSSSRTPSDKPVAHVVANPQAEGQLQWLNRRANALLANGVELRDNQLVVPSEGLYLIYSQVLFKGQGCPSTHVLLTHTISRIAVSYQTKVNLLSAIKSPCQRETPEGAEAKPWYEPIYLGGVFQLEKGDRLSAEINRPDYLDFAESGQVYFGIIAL

B1: anti-TNF-alpha VHH69: anti-TNF-alpha sdAb, SEQ ID NO. 46 (TNF_69, SEQ ID NO. 64) (protein)
VHH: EVQLVESGGGSVLAGGSLRLSCVASGFTSRYNYMAWFRQAPGKEREGVATIGTASGSADYYGSVKDRFTISQDNAKNTVYLQMNSLKPEDTAMYYCAARTYGTISLTPSDYRYWGQGTLVTVSS
modifications: Camelid
inhibition of killing of U937 by TNF-alpha (TNF-alpha): inhibit killing

B2: anti-TNF-alpha VHH62: anti-TNF-alpha sdAb, SEQ ID NO. 47 (TNF_62, SEQ ID NO. 66) (protein)
VHH: QVQLVESGGGPVQAGETLRLSCTASGFTFAEADMGWYRQAPGHECELVSTITTEGITSEASSYYADSVRGRFTISRDNAKNMVYLQMNSLKPEDTAVYYCAPDPYAYSTYSDYCSWAQGTQGTLVTVSS
modifications: Camelid
inhibition of killing of U937 by TNF-alpha (TNF-alpha): inhibit killing

B3: B.VHH14: anti-STAT3 single-domain antibody VHH14, SEQ ID NO. 4, bacterial production (protein)
VHH: QVQLVESGGGSVQAGGSLRLSCVASTYTGCMGWFRQAPGKEREGVAALSSRGFAGHYTDSVKGRFSISRDYVKNAVYLQMNTVKPEDAAMYYCAAREGWECGETWLDRTAGGHTYWGQGTLVTVSS
modifications: Camelid
notes: 4, bacterial production
% Inhibition (MDA-MB-231 cells; MDA-MB-231, 3 days, 10.0 μg/ml, single experiments): 23.1% and 20.0% and 38.5% and 23.3% | % Inhibition (MDA-MB-231 cells; MDA-MB-231, 3 days, 100 μg/ml, single experiments): 57.0% and 42.8% and 62.3% and 60.6% | % Inhibition (MDA-MB-231 cells; MDA-MB-231, 5 days, 0.5 μg/ml): 0% | % Inhibition (MDA-MB-231 cells; MDA-MB-231, 5 days, 1.0 μg/ml): 0% | Mean Absorbance (570 nM) ± S.E., Overall Mean (MDA-MB-231 cells; MDA-MB-231, day 3, 10.0 μg/ml): 0.504 ± 0.021 | Mean Absorbance (570 nM) ± S.E. (MDA-MB-231 cells; [1]): 0.456 ± 0.048 and 0.499 ± 0.018 and 0.502 ± 0.048 and 0.559 ± 0.041 | Mean Absorbance (570 nM) ± S.E., Overall Mean (MDA-MB-231 cells; MDA-MB-231, day 3, 100 μg/ml): 0.302 ± 0.043 | Mean Absorbance (570 nM) ± S.E. (MDA-MB-231 cells; [2]): 0.255 ± 0.005 and 0.357 ± 0.019 and 0.308 ± 0.021 and 0.287 ± 0.021 | Mean Absorbance (570 nM) ± S.E. (MDA-MB-231 cells; [3]): 0.666 ± 0.022 | Mean Absorbance (570 nM) ± S.E., Overall Mean (MDA-MB-231 cells; MDA-MB-231, day 5, 10.0 μg/ml): 0.688 ± 0.131 | Mean Absorbance (570 nM) ± S.E., Overall Mean (MDA-MB-231 cells; MDA-MB-231, day 5, 100 μg/ml): 0.475 ± 0.0690

B4: H.VHH14: anti-STAT3 sdAb VHH14, SEQ ID NO. 4; H. not defined, presumably mammalian production (protein)
VHH: B3 VHH
modifications: Camelid
% Inhibition (MDA-MB-231 cells; MDA-MB-231, 5 days, 0.5 μg/ml): 9.5% | % Inhibition (MDA-MB-231 cells; MDA-MB-231, 5 days, 1.0 μg/ml): 4.9% | % Inhibition (MDA-MB-231 cells; MDA-MB-231, 5 days, 10.0 μg/ml, single experiments): 18.2% | % Inhibition (MDA-MB-231 cells; MDA-MB-231, 5 days, 100 μg/ml, single experiments): 18.9% | Mean Absorbance (570 nM) ± S.E. (MDA-MB-231 cells; [1]): 0.588 ± 0.020 | Mean Absorbance (570 nM) ± S.E. (MDA-MB-231 cells; [2]): 0.416 ± 0.030 | Mean Absorbance (570 nM) ± S.E. (MDA-MB-231 cells; [3]): 0.485 ± 0.040 | Mean Absorbance (570 nM) ± S.E. (MDA-MB-231 cells; MDA-MB-231, day 5, 10.0 μg/ml, single experiments): 0.804 ± 0.015 | Mean Absorbance (570 nM) ± S.E. (MDA-MB-231 cells; MDA-MB-231, day 5, 100 μg/ml, single experiments): 0.797 ± 0.010 | Mean Absorbance (570 nM) ± S.E., Overall Mean (PANC-1 cells; PANC-1, day 3, 10.0 μg/ml): 1.089 ± 0.085 | Mean Absorbance (570 nM) ± S.E. (PANC-1 cells; PANC-1, day 3, 10.0 μg/ml): 0.920 ± 0.133 and 1.183 ± 0.114 and 1.163 ± 0.044 | Mean Absorbance (570 nM) ± S.E., Overall Mean (PANC-1 cells; PANC-1, day 3, 100 μg/ml): 0.906 ± 0.054 | Mean Absorbance (570 nM) ± S.E. (PANC-1 cells; PANC-1, day 3, 100 μg/ml): 0.808 ± 0.239 and 0.993 ± 0.088 and 0.916 ± 0.088 | Mean Absorbance (570 nM) ± S.E., Overall Mean (PANC-1 cells; PANC-1, day 5, 10.0 μg/ml): 1.368 ± 0.247 | Mean Absorbance (570 nM) ± S.E. (PANC-1 cells; PANC-1, day 5, 10.0 μg/ml): 1.859 ± 0.033 and 1.165 ± 0.015 and 1.081 ± 0.103 | Mean Absorbance (570 nM) ± S.E., Overall Mean (PANC-1 cells; PANC-1, day 5, 100 μg/ml): 0.754 ± 0.333
